Measured values from article PMC10123100, “Single-molecule visualization of stalled replication-fork rescue by the Escherichia coli Rep helicase”.

How the values were obtained:
Rep WT [1] = molecular target: T1, Rep WT (Escherichia coli, UniProt P09980 1-673); test: SPR; no nucleotide, 5 mM Mg2+; 20 nM Rep; kon 1.03e6 M-1 s-1, koff 2.15e-4 s-1; SPR: 25 mM Tris-HCl pH 7.6, 50 mM NaCl, 5 mM MgCl2, 0.25 mM DTT, 0.2 mM EDTA, 0.005% P20, 20 C; single-molecule: 25 mM Tris-HCl pH 7.9, 10 mM Mg acetate, 50 mM; details: protein: recombinant; chain copies: 2; single strand
Rep K28A = Rep K28A (Escherichia coli, UniProt P09980 1-673, K28A); test: SPR; 200 uM ATP, dissociation not stimulated; SPR: 25 mM Tris-HCl pH 7.6, 50 mM NaCl, 5 mM MgCl2, 0.25 mM DTT, 0.2 mM EDTA, 0.005% P20, 20 C; single-molecule: 25 mM Tris-HCl pH 7.9, 10 mM Mg acetate, 50 mM; details: protein: recombinant; tags: His6; chain copies: 2; single strand
Rep WT [2] = molecular target: T1, Rep WT; test: SPR; no nucleotide, 5 mM Mg2+; kon 1.22e7 M-1 s-1, koff 5.91e-3 s-1; SPR: 25 mM Tris-HCl pH 7.6, 50 mM NaCl, 5 mM MgCl2, 0.25 mM DTT, 0.2 mM EDTA, 0.005% P20, 20 C; single-molecule: 25 mM Tris-HCl pH 7.9, 10 mM Mg acetate, 50 mM; details: protein: recombinant; chain copies: 2; single strand

Row | Binder | Kd (Rep WT [1]) | binding result (Rep K28A) | Kd (Rep WT [2])
1 | TTTTTTTTTTTTTTTTTTTTTTTTTTTTTTTTTTT (ssDNA, 3'-biotin) [3'-bio-dT35] | 0.2 nM | binds | –
2 | TTTTTTTTTTTTTTT (ssDNA, 3'-biotin) [3'-bio-dT15] | – | – | 0.5 nM
